From the supplement of paper PMC9112550, “Optimization of the antimicrobial peptide Bac7 by deep mutational scanning” (BMC Biology, 2022) come the findings set out here.

In the data set the test system is Escherichia coli TOP10. Put plainly: shrunken log2 fold change of peptide-encoding DNA abundance (4.5 h post-induction vs induction); higher = less antimicrobial activity (less host growth inhibition). Particulars: time post-induction: 4.5 h; library: site-saturation at positions 5, 18, 19, 20.
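Further: peptides expressed intracellularly from a pBAD plasmid library in pooled LB shake-flask culture, induced with 0.3% L-arabinose, DNA abundance read by NGS, three biological replicates, DESeq2 with apeglm shrinkage.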

Regarding RRIRERPPRLPRPRPRPSWDPRP, the “shrunken log2 fold change” value is -0.247.

Take RRIRPRPPRLPRPRPRPGGEPRP: the “shrunken log2 fold change” value stood at 0.601. With RRIRARPPRLPRPRPRPRFAPRP, the “shrunken log2 fold change” value is 0.513. In the case of RRIRCRPPRLPRPRPRPTSIPRP, the “shrunken log2 fold change” value was -0.343.

Regarding RRIRRRPPRLPRPRPRPTYDPRP, the “shrunken log2 fold change” value was 0.0415. Next, RRIRCRPPRLPRPRPRPGNDPRP: 0.00582.

On to RRIRVRPPRLPRPRPRPQPNPRP, for which the “shrunken log2 fold change” value is -0.125. As to RRIRERPPRLPRPRPRPEQMPRP, the “shrunken log2 fold change” value was -6.54e-05. With RRIRKRPPRLPRPRPRPLQIPRP, the “shrunken log2 fold change” value stood at 0.0389. In the case of RRIRRRPPRLPRPRPRPAKYPRP, the “shrunken log2 fold change” value was found to be 0.0401.

Turning to RRIRLRPPRLPRPRPRPNMNPRP, the “shrunken log2 fold change” value was -0.68. The figure for RRIRKRPPRLPRPRPRPVSHPRP is 0.0254. In the case of RRIRNRPPRLPRPRPRPIAMPRP, the “shrunken log2 fold change” value is -0.0835.

For RRIRTRPPRLPRPRPRPVFEPRP, the “shrunken log2 fold change” value was -0.289. As to RRIRIRPPRLPRPRPRPKGIPRP, the “shrunken log2 fold change” value was -0.13.

For the sequence RRIRSRPPRLPRPRPRPGDIPRP, the “shrunken log2 fold change” value is -0.198.

Regarding RRIRFRPPRLPRPRPRPMTTPRP, the “shrunken log2 fold change” value came out at 0.000405. Next, RRIRTRPPRLPRPRPRPHWIPRP: -0.569; RRIRWRPPRLPRPRPRPYVTPRP: -0.385. As to RRIRQRPPRLPRPRPRPTIGPRP, the “shrunken log2 fold change” value turned out to be 0.0815. Turning to RRIRHRPPRLPRPRPRPRYHPRP, the “shrunken log2 fold change” value was -0.315. Regarding RRIRNRPPRLPRPRPRPYRWPRP, the “shrunken log2 fold change” value is -0.147. For the sequence RRIRCRPPRLPRPRPRPDKMPRP, the “shrunken log2 fold change” value is -0.156. In the case of RRIRCRPPRLPRPRPRPWFPPRP, the “shrunken log2 fold change” value was -0.699. On to RRIRCRPPRLPRPRPRPCHIPRP, for which the “shrunken log2 fold change” value was -0.0941. Regarding RRIRPRPPRLPRPRPRPMCRPRP, the “shrunken log2 fold change” value was -0.263. With RRIRDRPPRLPRPRPRPSHGPRP, the “shrunken log2 fold change” value is -0.0107.

Regarding RRIRDRPPRLPRPRPRPRIPPRP, the “shrunken log2 fold change” value was -0.108. Regarding RRIRDRPPRLPRPRPRPYCVPRP, the “shrunken log2 fold change” value is 0.00706. For the sequence RRIRQRPPRLPRPRPRPQCNPRP, the “shrunken log2 fold change” value was -0.0983. Consider RRIRTRPPRLPRPRPRPMLIPRP, for which the “shrunken log2 fold change” value was 0.0601. The figure for RRIRERPPRLPRPRPRPQRGPRP is -0.0773; for RRIRHRPPRLPRPRPRPWGIPRP it is -0.0176. Take RRIRQRPPRLPRPRPRPDGFPRP: the “shrunken log2 fold change” value was -0.0107. For RRIRCRPPRLPRPRPRPFTGPRP, the “shrunken log2 fold change” value is -0.0668.

As to RRIRWRPPRLPRPRPRPTVQPRP, the “shrunken log2 fold change” value stood at 0.116.

As for RRIRYRPPRLPRPRPRPMSFPRP, the “shrunken log2 fold change” value was -0.00962. On to RRIRSRPPRLPRPRPRPSAVPRP, for which the “shrunken log2 fold change” value came out at 0.091. In the case of RRIRARPPRLPRPRPRPWYKPRP, the “shrunken log2 fold change” value is -0.229. Consider RRIRDRPPRLPRPRPRPVVGPRP, for which the “shrunken log2 fold change” value came to 0.642. As for RRIRVRPPRLPRPRPRPFIRPRP, the “shrunken log2 fold change” value was -0.148. The figure for RRIRTRPPRLPRPRPRPMFSPRP is -0.263; for RRIRWRPPRLPRPRPRPVMWPRP it is 0.236; for RRIRLRPPRLPRPRPRPFLKPRP it is -0.0488. Turning to RRIRARPPRLPRPRPRPNLYPRP, the “shrunken log2 fold change” value is -0.345. In the case of RRIRRRPPRLPRPRPRPYDRPRP, the “shrunken log2 fold change” value is -0.164. Next, RRIRARPPRLPRPRPRPQSGPRP: -0.0719; RRIRVRPPRLPRPRPRPMHAPRP: -0.00559; RRIRERPPRLPRPRPRPWGSPRP: -0.0459. Regarding RRIRGRPPRLPRPRPRPSRMPRP, the “shrunken log2 fold change” value is 0.22. RRIRPRPPRLPRPRPRPICHPRP: the “shrunken log2 fold change” value was -0.0574. With RRIRARPPRLPRPRPRPQQQPRP, the “shrunken log2 fold change” value was determined as 0.946.

RRIRCRPPRLPRPRPRPKQQPRP: the “shrunken log2 fold change” value is 0.143. Next, RRIRGRPPRLPRPRPRPQGHPRP: 0.278.

RRIRFRPPRLPRPRPRPGAEPRP: the “shrunken log2 fold change” value amounted to 0.286. As to RRIRRRPPRLPRPRPRPLVMPRP, the “shrunken log2 fold change” value amounted to 0.164. Next, RRIRKRPPRLPRPRPRPPHMPRP: 0.208; RRIRTRPPRLPRPRPRPIMYPRP: -0.347; RRIRLRPPRLPRPRPRPRQFPRP: 0.196. With RRIRMRPPRLPRPRPRPVLEPRP, the “shrunken log2 fold change” value was determined as 0.426. The figure for RRIRGRPPRLPRPRPRPWRMPRP is -0.000462; for RRIRCRPPRLPRPRPRPWMWPRP it is -0.00829. Next, RRIRSRPPRLPRPRPRPFNFPRP: -0.112; RRIRHRPPRLPRPRPRPVRWPRP: 0.98. Regarding RRIRSRPPRLPRPRPRPHIFPRP, the “shrunken log2 fold change” value is -0.197. For RRIRERPPRLPRPRPRPVFGPRP, the “shrunken log2 fold change” value is -0.0574.

Consider RRIRKRPPRLPRPRPRPRGNPRP, for which the “shrunken log2 fold change” value is 0.258. The figure for RRIRHRPPRLPRPRPRPYCFPRP is -0.792; for RRIRARPPRLPRPRPRPGVSPRP it is 0.559; for RRIRERPPRLPRPRPRPPLRPRP it is 0.135. Consider RRIRMRPPRLPRPRPRPEYHPRP, for which the “shrunken log2 fold change” value is -0.00495. In the case of RRIRARPPRLPRPRPRPICVPRP, the “shrunken log2 fold change” value is 0.154.

With RRIRGRPPRLPRPRPRPNSHPRP, the “shrunken log2 fold change” value is 0.285. Consider RRIRMRPPRLPRPRPRPNQNPRP, for which the “shrunken log2 fold change” value was determined as 0.079. With RRIRERPPRLPRPRPRPDEMPRP, the “shrunken log2 fold change” value is -0.0223. For the sequence RRIRARPPRLPRPRPRPGGPPRP, the “shrunken log2 fold change” value was 0.294. For the sequence RRIRQRPPRLPRPRPRPPNGPRP, the “shrunken log2 fold change” value is -0.00787. Turning to RRIRLRPPRLPRPRPRPIGGPRP, the “shrunken log2 fold change” value was 0.0938. The figure for RRIRHRPPRLPRPRPRPQNTPRP is -0.871. Consider RRIRCRPPRLPRPRPRPKRNPRP, for which the “shrunken log2 fold change” value worked out at 0.34. Next, RRIRFRPPRLPRPRPRPMWNPRP: -0.363; RRIRCRPPRLPRPRPRPDGSPRP: -0.133; RRIRGRPPRLPRPRPRPTYQPRP: 0.169. For RRIRLRPPRLPRPRPRPIFPPRP, the “shrunken log2 fold change” value was 0.0478. Take RRIRFRPPRLPRPRPRPVWRPRP: the “shrunken log2 fold change” value worked out at 0.441. Take RRIRYRPPRLPRPRPRPCMNPRP: the “shrunken log2 fold change” value is -0.0223. For the sequence RRIRTRPPRLPRPRPRPWPYPRP, the “shrunken log2 fold change” value is -0.157. On to RRIRYRPPRLPRPRPRPCGHPRP, for which the “shrunken log2 fold change” value was -0.0238.

For the sequence RRIRPRPPRLPRPRPRPNCEPRP, the “shrunken log2 fold change” value worked out at 0.117. Regarding RRIRNRPPRLPRPRPRPTGHPRP, the “shrunken log2 fold change” value is 0.0742. Take RRIRWRPPRLPRPRPRPTKYPRP: the “shrunken log2 fold change” value is -0.124.
